Residue numbers refer to the chain shown, from its start. Values belong to the binder of their own block, whether it stands above or below them.
How the values were obtained:
[1] = molecular target: pSer7 CTD peptide (RNA polymerase II CTD, about two heptads, phosphorylated at Ser7); assay: fluorescence polarisation
[2] = molecular target: pSer2 CTD peptide (RNA polymerase II CTD, about two heptads, phosphorylated at Ser2); assay: fluorescence polarisation

Kd [1]: 32.5 µM
Kd [2]: 22.5 µM
B1: RPRD1B CID domain (residues 2-133), wild type (domain or fragment)
chain: SSFSESALEKKLSELSNSQQSVQTLSLWLIHHRKHAGPIVSVWHRELRKAKSNRKLTFLYLANDVIQNSKRKGPEFTREFESVLVDAFSHVAREADEGCKKPLERLLNIWQERSVYGGEFIQQLKLSMEDSK

Kd [2]: 37.9 µM
B2: RPRD1B CID domain (residues 2-133), Arg114A mutant (domain or fragment)
chain: B1 chain with R113A

Kd [2]: 37.8 µM
B3: RPRD1B CID domain (residues 2-133), Tyr61 to alanine (domain or fragment)
chain: B1 chain with Y60A

— PMC11775580
